Assay results: the supplement of paper PMC10567573

B1: TRAF3IP2 (parent)
chain: PGQPLPGASVRGLHPVQKVILNYP

Variants of: B1
Test: protein stability index of a GFP-peptide fusion (GPS, HEK-293T) (PSI 1-6); higher = more stable
Conditions: c terminus: a fixed tail appended
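Also: lentivirally expressed fusions sorted by FACS into six bins by GFP to DsRed ratio, PSI derived from sequencing read proportions per bin multiplied by bin number.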

Protein stability index, by site and new letter:
V10: D 2.96 | G 3.54 | H 2.79 | L 2.61 | R 2.57 | W 2.62 | C 3.29 | A 3.52 | S 3 | I 2.84 | N 3.5 | Y 3 | P 3.22 | M 3 | K 2.89 | F 2.36 | Q 3.05 | E 3.19 | T 2.87
P6: M 3.09 | I 2.79 | D 3.37 | N 3.21 | T 3.21 | G 2.5 | F 3.17 | W 2.53 | H 3.44 | V 3.46 | E 3.69 | R 3.63 | Y 2.72 | Q 3.46 | S 3.14 | C 2.08 | L 2.42 | A 3.49 | K 2.54
Q17: S 2.77 | R 3 | V 1.35 | N 2.8 | G 3.1 | T 2.81 | Y 3.02 | K 2.97 | A 2.62 | W 1.87 | C 2.52 | I 2.24 | H 2.9 | P 3.51 | L 1.71 | M 2.43 | E 2.95 | F 1.26
S9: D 3.08 | V 3.27 | L 3.09 | Q 2.86 | P 3.58 | A 3.99 | M 2.68 | E 2.92 | K 3.19 | F 2.21 | Y 2.62 | R 2.22 | I 2.16 | H 3.5 | W 2.97 | N 3.33 | T 3.48 | G 3.2
I20: F 3.38 | Q 3.87 | L 3.45 | R 3.89 | A 3.89 | N 3.72 | T 3.03 | H 2.95 | M 3.42 | S 4.67 | D 3.84 | V 2.93 | C 3.25 | K 4.01 | E 3.91 | P 3.36
G7: Q 3.12 | C 2.59 | T 3.31 | A 3.02 | E 3.55 | K 2.76 | L 3.44 | I 3.05 | W 2.09 | N 2.68 | P 3.04 | Y 2.26 | V 3.26 | R 2.69 | H 3.2 | D 3.22 | M 3 | F 3.15 | S 2.76
R11: I 2.96 | C 3.3 | M 2.75 | F 2.06 | E 3.19 | V 2.84 | H 3.51 | D 3.71 | L 2.25 | Q 3.79 | Y 3.4 | W 2.08 | P 3.79 | S 3.12 | A 2.6 | G 2.73 | K 2.88 | N 2.96 | T 3.2
L21: F 2.79 | G 3.64 | Q 3.79 | R 2.76 | V 2.87 | H 3.63 | I 3.5 | M 3.45 | T 3.71 | D 4.22 | K 3.99 | E 3.71 | C 3.23 | N 3.6 | P 3.66 | Y 3.24 | W 2.22 | S 3.55
G12: N 2.94 | I 2.63 | Q 3.42 | K 3.2 | P 3.14 | Y 2.74 | R 2.76 | L 2.12 | S 3.39 | E 3.87 | F 2.3 | D 3.64 | W 1.96 | H 2.7 | M 2.85 | A 3.69 | C 2.72 | V 2.43
H14: G 2.59 | F 2.61 | Y 2.82 | Q 3.67 | D 3.67 | W 2.15 | R 3.37 | A 3.45 | T 3.29 | V 2.96 | M 2.69 | K 3.51 | E 3.96 | I 3.04 | N 3.24 | C 3.3 | P 3.67 | S 3.19 | L 2.83
A8: S 3.27 | N 3.47 | M 2.97 | L 3.21 | H 2.97 | G 3.24 | T 3.65 | R 2.89 | P 3.08 | D 3.19 | Y 2.71 | I 2.83 | K 2.62 | V 2.39 | C 2.27 | F 2.51 | Q 2.59 | E 3.36
K18: A 2.64 | I 2.08 | P 2.99 | F 2.3 | G 3.57 | S 3.27 | L 2.31 | W 2.76 | T 3.38 | R 2.64 | H 2.85 | Y 2.52 | V 2.02 | Q 3.78 | M 2.72 | N 2.65 | D 3.6 | C 2.09
L13: Y 2.26 | G 3.31 | S 3.42 | R 3.68 | W 3.02 | M 3.59 | T 3.56 | I 3.1 | C 1.83 | E 3.9 | H 3.75 | P 3.84 | K 3.5 | D 3.68 | Q 3.69 | A 3.38 | F 2.91 | N 3.36 | V 2.85
P15: A 2.29 | V 2.02 | I 1.76 | Y 1.91 | E 3.12 | K 2.75 | L 2.25 | G 2.76 | T 2.48 | R 3.39 | S 2.79 | M 2.05 | H 3.08 | C 2.13 | N 2.92 | Q 3.85 | D 3.53
P4: Y 2.77 | V 2.69 | W 2.84
V19: T 3.59 | H 3.06 | Q 3.71 | E 4.06 | R 2.82 | F 2.45 | A 3 | W 3.38 | N 3.59 | L 3.23 | D 3.23 | C 3.16 | I 3.26 | M 2.74 | Y 2.91 | P 3.29 | S 3.09 | K 3.32
N22: P 3.44 | L 1.83 | D 3.13 | M 2.3 | F 1.59 | Q 2.98 | T 3.05 | H 2.49 | G 2.54 | Y 1.95 | A 2.74 | R 4.18 | S 3.27 | E 3.51 | V 1.69 | C 2.51
L5: D 3.84 | H 3.42 | Y 3.48 | A 3.31 | F 2.29 | T 3.88 | R 3.19 | S 3.43 | P 3.64 | C 2.94 | N 3.66 | E 3.15 | M 3.44 | I 3.34 | W 2.94 | K 3.25 | Q 3.95 | G 3.56
V16: N 3.61 | C 2.93 | L 2.57 | T 3.36 | P 2.66 | A 3.24 | W 2.54 | E 3.44 | Y 2.04 | I 3.09 | Q 3.63 | S 3.46 | M 2.72 | D 4.08 | F 2.83 | H 3.03 | R 3.49
Y23: G 3.71 | F 3.45 | E 3.86 | D 4.72 | A 3.9 | H 3.95 | C 3.42
